Measured values as given in publication PMC3397948, “Cytoplasmic Sulfurtransferases in the Purple Sulfur Bacterium Allochromatium vinosum: Evidence for Sulfur Transfer from DsrEFH to DsrC” (PLoS ONE, 2012).
“And” between values parts separate entries of the source, which are not always exact repeats. Identical values can stand only once. One block for each molecule: values may come before it.

Experiments:
[1] = target: T1, DsrEFH (Allochromatium vinosum, UniProt O87896); test: MALDI-TOF mass spectrometry, mass increase (persulfide); type: binding; conditions: 2 mM NaSH, 1 h, 30°C, 50 mM Tris-HCl pH 7.5, 100 mM NaCl; covalent; at DsrE-Cys78
T1 construct: gene dsrE; recombinant, amino-terminal His-tag; alpha2beta2gamma2 heterohexamer; with Intracellular sulfur oxidation protein DsrF; Intracellular sulfur oxidation protein DsrH

[2] = target: T2, DsrEFH from Allochromatium vinosum (DsrE2F2H2 heterohexamer), wild type (Allochromatium vinosum, UniProt O87896 1-130; O87897 1-136; O87898 1-102); test: native gel or EMSA; Blue-native PAGE (10-15%), 4°C, 6 mA; DsrEFH pre-incubated with DsrC in 1:2 ratio as for the native gel; masses from a calibration curve of standards; conditions: both partners purified
T2 construct: DsrE, subunit of DsrEFH, Allochromatium vinosum; conserved active-site Cys78; DsrF, subunit of DsrEFH, Allochromatium vinosum; DsrH, subunit of DsrEFH, Allochromatium vinosum; conserved Cys20; source: overproduced and purified as described earlier [22], [8], [3]; not shown: His-tag (subunit inferred: DsrE), N-terminal, kept; copies: 2 + 2 + 2
T2 sequence (looked up) 1: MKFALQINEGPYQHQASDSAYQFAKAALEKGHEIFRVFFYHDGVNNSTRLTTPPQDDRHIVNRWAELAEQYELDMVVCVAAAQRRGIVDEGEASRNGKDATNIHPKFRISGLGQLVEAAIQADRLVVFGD
T2 sequence (looked up) 2: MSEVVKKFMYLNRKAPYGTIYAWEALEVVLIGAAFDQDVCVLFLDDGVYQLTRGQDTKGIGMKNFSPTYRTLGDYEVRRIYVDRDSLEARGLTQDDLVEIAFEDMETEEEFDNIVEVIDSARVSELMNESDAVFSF
T2 sequence (looked up) 3: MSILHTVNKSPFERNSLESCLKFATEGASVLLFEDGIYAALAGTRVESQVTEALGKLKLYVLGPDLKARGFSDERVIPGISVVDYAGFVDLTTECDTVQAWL

[3] = target: T2, DsrEFH from Allochromatium vinosum …; test: dynamic light scattering; DsrEFH (2 mg/ml) with or without DsrC (0.8 mg/ml), same ratio and conditions as for native gels, 30°C; apparent molecular mass from hydrodynamic diameter; conditions: both partners purified

Molecule: S [sulfide]
MALDI-TOF mass spectrometry, mass increase (persulfide) [1]: The persulfuration was attained by incubation with sulfide as well as with cysteine and IscS.

stoichiometry N [2]: 1 DsrC per DsrE2F2H2 heterohexamer and 2 DsrC per DsrE2F2H2 heterohexamer
stoichiometry N [3]: 1 DsrC:DsrEFH
B1: DsrC from Allochromatium vinosum, wild type (natural protein, UniProt O87899 1-112, looked up)
chain: MADTIEVDGKQFAVDEEGYLSNLNDWVPGVADVMAKQDNLELTEEHWDIINFLREYYEEYQIAPAVRVLTKAVGKKLGKEKGNSKYLYSLFPYGPAKQACRFAGLPKPTGCV
notes: DsrC, Allochromatium vinosum; conserved Cys100 and Cys111 (Cys111 in the penultimate position of the protein); Reduced with 25 uM TCEP before SPR; also called DsrC wild type; DsrC wt; source: overproduced and purified as described earlier [22], [8], [3]; not shown: His-tag, N-terminal, kept
